# Assays:
# AGF gene = test: Amount of AGF gene expressed in C2C12 cells by quantitative PCR; assay type: cell-based, mouse; conditions: 48 hours, compensated by cyclophilin, insulin at 100 nmol/L
# Protocol: C2C12 cells (ATCC No.: CRL-1772) were added to a 24-well collagen-coated plate (ASAHI TECHNO GLASS) to become 20000 cells per well, and cultured with a Dulbecco's modified Eagle's medium (DMEM) supplemented with 15% fetal bovine serum, for one day. After insulin (Biomedical Technologies Inc) was added to the medium to a final concentration of 100 nmol/L, or after the medium was changed to the culture supernatant of 3T3-L1 prepared in Example 11, the C2C12 cells were cultured for 48 hours. As a control, the C2C12 cells were cultured with DMEM supplemented with 15% fetal bovine serum for 48 hours, without such treatments. After the cultivation, total RNAs were prepared from treated cells using an RNeasy Mini Kit (Qiagen) in accordance with a protocol attached thereto, and 500 ng thereof was converted to cDNAs using a Thermoscript RT-PCR system kit (Invitrogen).
# Amounts of AGF gene expressed in C2C12 cells were measured by a quantitative PCR, using DNAs of SEQ ID NOS: 29 and 30 as primers for amplifying the mouse AGF, cDNAs (derived from culture supernatants of C2C12 cells) prepared in Example 12 as a template, and a sequence detector (ABI PRISM 7900; Applied Biosystems). […]
# MAPK p38 = test: MAPK phosphorylation by AGF stimulation, Western blotting, C2C12 cells differentiated into muscle; assay type: cell-based, mouse; conditions: AGF protein 1 μg/mL, 10 minutes, versus PBS
# Protocol: (§1) C2C12 cells were cultured with a growth medium (DMEM supplemented with 10% FCS) in a type I collagen coated 12-well plate to become confluent. After the medium was changed to a differentiation medium (DMEM supplemented with 2% horse serum), the C2C12 cells were cultured for 7 days to differentiate them into muscle. The cells were cultured in a serum-free medium containing 1% BSA, and the medium was changed to the same medium. The AGF protein (final concentration=1 μg/mL) or an equal volume of PBS was added. After 10 minutes, the medium was remove by suction, and the reaction was stopped by adding 50 μL of a solution for cell lysis [50 mmol/L HEPES (pH7.2), 1% Triton X-100, 10% glycerol, 10 mmol/L Na4P2O7, 100 mmol/L NaF, 100 μmol/L Na3VO4, 40 mmol/L EDTA, 50 μg/mL aprotinin, 1 mmol/L phenylmethyl sulfonyl fluoride (PMSF), 0.1 mmol/L leupeptin, and 25 μmol/L pepstatin A] to the cells. To each cell lysate sample obtained, an SDS-sample buffer [20% glycerol, 130 mmol/L Tris-HCl (pH6.8), 10% 2-mercaptoethanol, 6% SDS, and 0.2 mg/mL bromphenol blue] was added, and each sample was subjected to SDS-PAGE and blotted to a polyvinylidene fluoride (PVDF) membrane. Western blotting was carried out, using an anti-phosphorylated MAPK p38 antibody (Cell signaling #9211), an anti-phosphorylated MAPK p42/p44 antibody (Cell signaling #9101), an anti-MAPK p38 antibody (Cell signaling #9212), or an anti-MAPK p42/44 antibody (Cell signaling #9102) as the first antibody and an HRP-labeled anti-mouse IgG antibody (Example 9) as the second antibody, to detect a phosphorylation of MAPK p38, MAPK p42, and MAPK p44. The result of Western blotting was scanned using a scanner, and a concentration of each phosphorylated band was quantitated by an image analyzing software.
# MAPK p44 = test: as above; assay type: cell-based, mouse; conditions: AGF protein 1 μg/mL, 10 minutes, versus PBS
# Protocol: as §1
# MAPK p42 = test: as above; assay type: cell-based, mouse; conditions: AGF protein 1 μg/mL, 10 minutes, versus PBS
# Protocol: as §1
# MAPK [1] = test: MAPK phosphorylation by AGF stimulation in ATDC5; assay type: cell-based; conditions: ATDC5 instead of C2C12
# MAPK [2] = test: MAPK phosphorylation by AGF stimulation in HUVEC; assay type: cell-based, human; conditions: HUVEC instead of C2C12
# ATDC5 cells = test: Binding of AGF protein to cell line, flow cytometry; conditions: protein 10 μg/mL, 4° C., 30 minutes; PI negative cells
# Protocol: ATDC5 cells were cultured in a growth medium (DMEM/F12 with 5% FCS) to become subconfluent, and removed from a plate by a cell scraper. The cells were washed twice with an FCM buffer (0.1% BSA/1 mmol/L CaCl2/1 mmol/L MgCl2/PBS), and reacted with or without the mouse AGF protein or the human AGF protein at 4° C. for 30 minutes, at a final concentration of 10 μg/mL of the protein. The cells were washed with the FCM buffer, and reacted with fluorescein isothiocyanate (FITC)-labeled M2 antibody (Sigma) at 4° C. for 30 minutes, at a final concentration of 10 μg/mL. The cells were washed three times with the FCM buffer, and propidium iodide (PI) was added to the cells at a final concentration of 1 μg/mL, to stain death cells. The cells were analyzed using a flow cytometer (Cytomics FC 500; Beckman Coulter, Inc.), and an FITC intensity derived from PI negative cells other than death cells was measured.
# Since the FLAG sequence was added to the human AGF protein and the mouse AGF protein, when the M2 antibody specific to the FLAG sequence was used, the FITC-labeled M2 antibody bound to the AGF protein which bound to cells, and thus, the fluorescence intensity of cells to which the AGF protein bound was increased. […]
molecule,measurement,setting,value
insulin,induction of AGF expression in comparison with untreated control,AGF gene,approximately 6 times
"AGF protein: angiopoietin-related growth factor protein, species not stated in Example 16 (protein, UniProt Q8NI99 21-470, looked up) Angiopoietin-related protein 6: RAGAPRCTYTFVLPPQKFTGAVCWSGPASTRATPEAANASELAALRMRVGRHEELLRELQRLAAADGAVAGEVRALRKESRGLSARLGQLRAQLQHEAGPGAGPGADLGAEPAAALALLGERVLNASAEAQRAAARFHQLDVKFRELAQLVTQQSSLIARLERLCPGGAGGQQQVLPPPPLVPVVPVRLVGSTSDTSRMLDPAPEPQRDQTQRQQEPMASPMPAGHPAVPTKPVGPWQDCAEARQAGHEQSGVYELRVGRHVVSVWCEQQLEGGGWTVIQRRQDGSVNFFTTWQHYKAGFGRPDGEYWLGLEPVYQLTSRGDHELLVLLEDWGGRGARAHYDGFSLEPESDHYRLRLGQYHGDAGDSLSWHNDKPFSTVDRDRDSYSGNCALYQRGGWWYHACAHSNLNGVWHHGGHYRSRYQDGVYWAEFRGGAYSLRKAAMLIRPLKL",increase of phosphorylation in phosphorylated MAPK p38,MAPK p38,1.6 times
same,increase of phosphorylation in phosphorylated MAPK p44,MAPK p44,4.3 times
same,increase of phosphorylation in phosphorylated MAPK p42,MAPK p42,3.4 times
same,phosphorylation of MAPK,MAPK [1],promoted
same,phosphorylation of MAPK,MAPK [2],promoted
"mouse AGF protein: FLAG-tagged recombinant mouse angiopoietin-related growth factor purified from HEK293 culture supernatant (protein, left off: small tags and cut ends, FLAG-tagged recombinant mouse angiopoietin-related growth factor purified from HEK293 culture supernatant) ARCRVTLVLSPQKATSAVCRSSEATQDSELATLRMRLGRHEELLRALQRRAAEGGALADEVRALREHSLTLNTRLGQLRAQLQQEARAEPDLGAEPAAALGLLAERALDAEAEARRTTARLQQLDAQLREHAQLMSQHSSLLGRLQRACAGPERGQQQVLPLPLAPLVPLSLVGSASNTSRRLDQTPEHQREQSLRQQGPPSSLLPTGHLAVPTRPVGPWRDCAEAHGAGHWQSGVYDLRLGRRVVAVWCEQQQEGGGWTVIQRRQDGSVNFFTNWQHYKAGFGRPEGEYWLGLEPVHQVTSRGDHELLILLEDWGGRAARAHYDSFSLEPESDHYRLRLGQYHGDAGDSLSWHNDKPFSTVDRDRDSYSGNCALYHRGGWWYHACAHSNLNGVWYHGGHYRSRYQDGVYWAEFRGGAYSLKKAVMLTRLVRL",increase of the fluorescence intensity (FITC-labeled M2 antibody) of cells,ATDC5 cells,1.5 times
"human AGF protein: FLAG-tagged recombinant human angiopoietin-related growth factor purified from HEK293 culture supernatant (protein, left off: small tags and cut ends, FLAG-tagged recombinant human angiopoietin-related growth factor purified from HEK293 culture supernatant) RAGAPRCTYTFVLPPQKFTGAVCWSGPASTRATPEAANASELAALRMRVGRHEELLRELQRLAAADGAVAGEVRALRKESRGLSARLGQLRAQLQHEAGPGAGPGADLGAEPAAALALLGERVLNASAEAQRAAARFHQLDVKFRELAQLVTQQSSLIARLERLCPGGAGGQQQVLPPPPLVPVVPVRLVGSTSDTSRMLDPAPEPQRDQTQRQQEPMASPMPAGHPAVPTKPVGPWQDCAEARQAGHEQSGVYELRVGRHVVSVWCEQQLEGGGWTVIQRRQDGSVNFFTTWQHYKAGFGRPDGEYWLGLEPVYQLTSRGDHELLVLLEDWGGRGARAHYDGFSLEPESDHYRLRLGQYHGDAGDSLSWHNDKPFSTVDRDRDSYSGNCALYQRGGWWYHACAHSNLNGVWHHGGHYRSRYQDGVYWAEFRGGAYSLRKAAMLIRPLKL",increase of the fluorescence intensity (FITC-labeled M2 antibody) of cells,ATDC5 cells,8.1 times

# — patent publication US20080102459A1, “Method of Screening Antiobesity Agents” (ASTELLAS PHARMA INC., priority 2004, published 2008)
